Data reported in patent US20220144895A1, “DE NOVO DESIGN OF TUNABLE PH-DRIVEN CONFORMATIONAL SWITCHES” (University of Washington, priority 2019, published 2022).
Numbering of substitutions follows the chain as printed. Names and notes keep the numbering of the source. “Also recorded” adds a separate entry of the source.

How the values were obtained:
[1] = Fluorescence dequenching liposome leakage (liposome disruption) assay; assay type: biochemical; details: for pH-dependent liposome disruption: 2.5 μM protein with respect to monomer, SRB leakage; for liposome disruption activity at pH 4.75: pH 4.75, 2.5 μM protein
Experimental: Liposomes composed of DOPC (1,2-dioleoyl-sn-glycero-3-phosphocholine), DOPC with 25% cholesterol (molar ratio to DOPC), 3:1 DOPC:POPS (1-palmitoyl-2-oleoyl-sn-glycero-3-phospho-L-serine), and 3:1 DOPC:POPS with 25% cholesterol were prepared identically to a final concentration of 5 mM total lipid as previously described (32); lipids from Avanti Polar Lipids. Lipids solubilized in chloroform were dried under nitrogen gas and stored under vacuum for a minimum of 2 hours to remove residual solvent. The dried lipid film was the resuspended in Tris buffer (10 mM Tris, 150 mM NaCl, and 0.02% NaN3 pH 8.0) containing 25 mM Sulforhodamine B (SRB) fluorophore (Sigma) and subjected to 10 sequential freeze thaw cycles in liquid nitrogen. Liposomes were extruded 29 times through 100 nm pore size polycarbonate filters (Avanti Polar Lipids) and purified from free fluorophore using a PD-10 gel filtration column (GE Healthcare) into storage buffer (10 mM Tris, 150 mM NaCl, and 0.02% NaN3 pH 8.0). Liposome size and homogeneity was analyzed by dynamic light scattering (DLS) using a Dynapro Nanostar™ DLS (Wyatt Technologies). On average liposome diameter ranged from 120-130 nm with low polydispersity. Liposomes were stored at 4° C. and used within 5 days of preparation.
Liposome disruption and content leakage was analyzed by fluorescence spectroscopy as previously described (32). […] The solution was rapidly acidified to the target pH by addition of a fixed volume of acidification buffer and incubated for 20 minutes. […] SRB fluorescence is independent of pH within the ranges used here. Finally. Triton X-100 (Sigma) was added to a final concentration of 1% to fully disrupt liposomes. Liposome disruption as indicated by content leakage and SRB dequenching was normalized using the formula [Fω−F(0)]/[F(Max)−F(0)] where F(0) is the average fluorescence intensity before acidification and F(Max) is the average fluorescence intensity ater addition of Triton X-100. All measurements were collected on a Varian Cary Eclipse spectrophotometer using an excitation/emission pairing of […] and 2.5 nm slit widths at 24° C. Any data plotted together was collected using the sum batch of liposomes.

[2] = Native mass spectrometry of pH-induced changes in oligomeric state; assay type: physicochemical; details: for cooperativity of the pH-induced transition: native MS at different pH values; for reversibility of disassembly: pH lowered with acetic acid, then raised by ammonia or buffer exchange; for pH response of oligomeric state (pH-induced disassembly): pH ~7 to ~3
Experimental: Samples were buffer exchanged twice into 200 mM ammonium acetate (NH4Ac; MilliporeSigma) using Micro Bio-Spin P-6 columns (Bio-Rad). Protein concentrations were determined by UV absorbance using a Nanodrop 2000c spectrophotometer (Thermo Fisher Scientific) and diluted to make up a 10-fold stock solution (50 μM and 16.7 μM monomer and trimer concentration, respectively). 1 μL of this solution was mixed with 9 μL 200 mM NH4Ac/50 mM triethylammonium acetate (TEAA; MilliporeSigma), adjusted with acetic acid (Fisher Scientific) to obtain the desired final pH and incubated on ice for 30 min. […] 5 μL samples were filled into an in-house pulled glass capillary and ionized by nESI at a monomer or a trimer concentration of 5 μM or 1.67 μM respectively. All pH titration data were acquired on an in-house modified SYNAPT® G2 HDMS (Waters Corporation) with a surface-induced dissociation (SID) device incorporated between a truncated trap traveling wave ion guide and the ion mobility cell (39). The following instrument parameters were used spray voltage 0.9-1.3 kV; sampling cone, 20 V; extraction cone, 2 V; source temperature, room temperature; trap gas flow, 4 mL/min; trap bins, 45V. The data were processed with MassLynx™ v4.1 and DriftScope™ v2.1. For relative quantification, charge state series were extracted from DriftScope™, and smoothed spectra (mean; window 20; number of smooths 20) were integrated.
Python scripts were written to generate theoretical models according Equation 1, and curve-fitting to native mass spectrometry data (FIGS. 1, 3, 5) according to Equation 2 by nonlinear least squares using curve fit from scipy.optimize. The free energy estimates for individual n, m, and l layers used in Equation 1 modeling were estimated by solving linear equations as follows: values for the free energy of folding for designs pRO-2 and variants were estimated from GdmCl denaturation experiments (FIG. 11); each of these designs have different numbers of n, m, and l layers, thus series of linear equations relating the number of each layer type to the total free energies of folding were solved to estimate dG values of the individual layers of each type.

[3] = Circular dichroism: GdmCl chemical denaturation and temperature melts; details: CD at 222 nm, PBS pH 7.4 or Na2PO4-Citrate at lower pH
From the text: For low-pH experiments involving circular dichroism (CD), small-angle X-ray scattering (SAXS), and size exclusion chromatography (SEC), Na2PO4-Citrate buffer was used to ensure that a single buffer system could be used that was stable over the entire pH range to be tested. Buffers were made using established ratios of stock solutions of 0.2 M Na2PO4 and 0.1 M Citrate; final pH was adjusted using hydrochloric acid (HCl) or sodium hydroxide (NaOH) if needed.
CD wavelength scans (260 to 195 nm) and temperature melts (25 to 95° C.) were measured using a JASCO™ J-1500 or an AVIV™ model 420 CD spectrometer. Temperature melts monitored absorption signal at 222 nm and were carried out at a heating rate of 4° C./min; protein samples were at 0.25 mg/mL in either phosphate buffered saline (PBS) pH 7.4 or Na2PO4-Citrate at indicated pH values (see Buffers systems for varying pH). Guanidinium chloride (GdmCl) titrations were all performed on an AVIV 420 spectrometer with an automated titration apparatus using either PBS pH 7.4 or Na2PO4-Citrate buffers at indicated pH at room temperature, monitoring helical signal at 222 nm, using a protein concentration of 0.025 mg/mL in a 1 cm cuvette with stir bar. Each titration consisted of at least 30 evenly distributed concentration points with one minute mixing time for each step. Titrant solution consisted of the same concentration of protein in the same buffer system plus GdmCl; GdmCl concentration of starting solutions was determined by reactive index.

[4] = fused at its n-terminus to a nanoparticle

B1: SEQ ID NO: 40: as SEQ ID NO: 39 but third asparagine network mutated to all hydrophobics (protein)
chain: GSEEEIKRLLEELRKALEELRRITKELDDLSKELRVGGSGSGSLVPRGSGSGSGSHALVEHNKLISEHNRIVVEVLRIIAEILEAIARVGGSGSGSVEVERILDELRKALEELDRVTKELKKLTEELDVGGSGSGSLVPRGSGSGSGSVEALVRHNVLITRHNDIVVKVLDIIAKILKLIAEAVGGSGSGSELERILRELEEALKELRKATEELRRLSEELKVGGSGSGSLVPRGSGSGSGSHEALVRHNEAIVEHNKIVVKVLDIIAKILELITERI
kinetics of liposome disruption relative to pRO2.3, nanoparticle fusion [1, 4]: slower kinetics
liposome disruption better than pRO2.3, nanoparticle fusion [1, 4]: 5-10%

B2: pRO-2.5: pRO-2 variant, SEQ ID NO: 11-12 (protein)
chain 1: MGSHHHHHHGSGSENLYFQGSEYEIRKALEELKASTAELKRATASLRASTEELKKNPSEDALVENNRLIVEHNAIIVENNRIIAAVLELIVRAIK
chain 2: SEYEIRKALEELKASTAELKRATASLRASTEELKKNPSEDALVENNRLIVEHNAIIVENNRIIAAVLELIVRAIK
cooperativity of the pH-induced transition [2]: least cooperative design tested
pH transition point of disassembly (pH set point, pH0) ([2]; native MS, evaluated from pH 7 down to pH 3): ~4 pH
reversibility of disassembly [2]: Re-association was induced
folding stability by GdmCl denaturation [3]: lowest stability

B3: pRO-2 I70N: pRO-2 mutant, SEQ ID NO: 21-22 (protein)
chain 1: B2 chain 1 with S35A, S49I, N65H, L68A, N79H, I90N
chain 2: GSEYEIRKALEELKAATAELKRATASLRAITEELKKNPSEDALVEHNRAIVEHNAIIVEHNRIIAAVLELNVRAIK
pH-dependent liposome disruption [1]: attenuation of pH-induced liposome disruption
pH-dependent liposome disruption ([1]; listed as pRO-2170N): attenuates liposome activity

B4: SEQ ID NO: 39: similar to pRO2.3, Thrombin cleavage sites on each loop, destabilizing I56V mutation (protein)
chain: GSEEEIKRLLEELRKSSEELRRITKELDDLSKELRVGGSGSGSLVPRGSGSGSGSHALVEHNKLISEHNRIVVENNRIIVEILEAIARVGGSGSGSVEVERILDELRKSSEELDRVTKELKKLTEELDVGGSGSGSLVPRGSGSGSGSVEALVRHNVLITRHNDIVVKNNDIINKILKLIAEAVGGSGSGSELERILRELEESTKELRKATEELRRLSEELKVGGSGSGSLVPRGSGSGSGSHEALVRHNEAIVEHNKIVVKNNDIIVKILELITERI
kinetics of liposome disruption relative to pRO2.3, nanoparticle fusion [1, 4]: slower kinetics
liposome disruption relative to pRO2.3, nanoparticle fusion [1, 4]: close as well as pRO2.3

B5: SEQ ID NO: 38: similar to pRO2.3, TEV site parallel to the termini, aromatic residues on the n-terminal helix (protein)
chain: GSEEEIKRLLEELRKSSEELRRITKELDDLSKELRVGGSGSGSEMLVEHNKLISEHNRIIVENNRIIVEILEAIARVGGSGSGSVEVERILDELRKSSEELDRVTKELKKLTEELDVGGSGSGSVEALVRHNVLITRHNDIIVKNNDIINKILKLIGEAVGGSENLYFQGSGSEFERWLRQLEESTKELRKFTEELRRFSEELKVGGSGSGSVEALVRHNEAIVEHNKAIVKNNDIIVKILELVTERI
liposome disruption better than the pRO2.3 homotrimer ([1]; compared with pRO2.3 homotrimer): 5-10%

B6: pRO-3.1: pRO-3 variant, SEQ ID NO: 25-26 (protein)
chain 1: MGSHHHHHHGSGSENLYFQGSEALYELEKATRELKKATDELERATEELEKNPSEDALVEHNRLIAEHNKIIAEHNRIIAKVLK
chain 2: GSEALYELEKATRELKKATDELERATEELEKNPSEDALVEHNRLIAEHNKIIAEHNRIIAKVLK
pH-dependent liposome disruption [1]: did not exhibit any liposome disruption
liposome disruption activity at pH 4.75 [1]: does not
pH response of oligomeric state (pH-induced disassembly) ([2]; native MS): more pH-sensitive than design pRO-3
reversibility of disassembly [2]: re-association of monomers into trimer

B7: pRO-3: designed homotrimer, SEQ ID NO: 23-24 (protein)
chain 1: B6 chain 1 with T31L, D39A, E40A, E46A, E49K, E66A, H74V, N75L
chain 2: B6 chain 2 with T12L, D20A, E21A, E27A, E30K, E47A, H55V, N56L
pH-dependent liposome disruption [1]: caused pH-dependent liposome disruption
liposome disruption activity at pH 4.75 [1]: shows liposome disruption activity

B8: pRO-2.3-GS: pRO-2.3 with flexible GS loop, SEQ ID NO: 35-36 (protein)
chain 1: MGSHHHHHHGSGSENLYFQGSEYEIRKALEELKASTAELKRATASLRAITEELKKGGSGSGSEDALVEHNRAIVEHNAIIVENNRIIAAVLELIVRAIK
chain 2: GSEYEIRKALEELKASTAELKRATASLRAITEELKKGGSGSGSEDALVEHNRAIVEHNAIIVENNRIIAAVLELIVRAIK
oligomeric state at pH 7 / neutral pH ([2]; native MS): retains its trimeric assembly at neutral pH
cooperativity of the pH-induced transition [2]: less cooperativity

B9: pRO-2-GS: pRO-2 with flexible GS loop, SEQ ID NO: 33-34 (protein)
chain 1: B8 chain 1 with S35A, N83H
chain 2: B8 chain 2 with S16A, N64H
oligomeric state at pH 7 / neutral pH ([2]; native MS): loses its homogenous trimeric assembly at neutral pH

B10: 2L6HC3_13: previous designed homotrimer lacking buried histidines, PDB ID 5J0H (protein)
chain: GTKYELRRALEELEKALRELKKSLDELERSLEELEKNPSEDALVENNRLNVENNKIIVEVLRIIAEVLKINAKSD
pH response of oligomeric state (pH-induced disassembly) ([2]; native MS): no change in oligomeric state; also recorded: no significant pH response
pH response of oligomeric state (pH-induced disassembly) ([2]; native MS, listed as 2L6C3_13): not pH-sensitive
folding stability by GdmCl denaturation [3]: no change
folding stability by GdmCl denaturation ([3]; listed as 2L6C3_13): no destabilization

B11: SEQ ID NO: 37: pRO2.3, single-chain, GS linkers on all loops, asymmetrized, TEV site opposite to the termini direction (protein)
chain: GSEEEIKRLLEELRKSSEELRRITKELDDLSKELRVGGSGSGSEMLVEHNKLISEHNRIIVENNRIIVEILEAIARVGGSGSGSVEVERILDELRKSSEELDRVTKELKKLTEELDVGGSENLYFQGSGSVEALVRHNVLITRHNDIIVKNNDIINKILKLIAEAVGGSGSGSELERILRELEESTKELRKATEELRRLSEELKVGGSGSGSVEALVRHNEAIVEHNKIIVKNNDIIVKILELITERI
liposome disruption relative to pRO2.3, nanoparticle fusion [1, 4]: as well as pRO2.3
kinetics of dissociation in the liposome assay ([1]; linked-pH trimer): slower
membrane disruption level (dye leakage over time) ([1]; linked-pH trimer, order of minutes): same membrane disruption levels
